Source: US20230212319A1, “NOVEL ANTIGEN BINDING DOMAINS AND SYNTHETIC ANTIGEN RECEPTORS INCORPORATING THE SAME” (University of Southern California, priority 2020, published 2023)

Legend:
L363 cells = assay: JNG assay, co-culture with L363 cells; type: cell-based; conditions: co-culture with L363
How it was run: (§1)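 Jurkat-NFAT-GFP (JNG) cells stably expressing SAR constructs via lentiviral transduction and puromycin/blasticidin selection were cocultured with target cells at E:T ~1:2 for ~4–18 h. NFAT-driven GFP was measured by FACS versus parental JNG cells; scores +/- to 5+ denote ~5–50% GFP-positive cells.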

RAJI cells = assay: JNG assay, co-culture with RAJI cells; type: cell-based; conditions: JNG cells expressing construct, co-culture with Raji
How it was run: as §1

B1: 22029 (protein)
chain: MALPVTALLLPLALLLHAARPQLQLQESGPGLVKPSETLSLTCTVSGDSISSGDYYWGWIRQPPGKGLEWIGHIYYSGVTYYNPSLKSRVTISVDTSRNQFSLKLSSVTAADTAVYYCTREDSSNWRSRGQGTLVTVSSLEDKTHTCPPCPAPIKTDVITMDPKDNCSKDANDTLLLQLTNTSAYYMYLLLLLKSVVYFAIITCCLLRRTAFCCNGEKSRAKRSGSGATNFSLLKQAGDVEENPGPTSMDWIWRILFLVGAATGAHSFEVQLVESGGGVVQPGRSLRLSCAASGFSFSGYGMHWVRQAPGKGLEWVAYISYDGSNKYYADSVKGRFTISRDNSKNTLYLQMNSLRAEDTAVYYCAKDPAWGLRLGESSSYDFDIWGQGTMVTVSSTRIQNPDPAVYQLRDSKSSDKSVCLFTDFDSQTNVSQSKDSDVYITDKCVLDMRSMDFKSNSAVAWSNKSDFACANAFNNSIIPEDTFFPSPESSCDVKLVEKSFETDTNLNFQNLSVIGFRILLLKVAGFNLLMTLRLWSSRAKRSGSGVKQTLNFDLLKLAGDVESNPGPSRGHMTEYKPTVRLATRDDVPRAVRTLAAAFADYPATRHTVDPDRHIERVTELQELFLTRVGLDIGKVWVADDGAAVAVWTTPESVEAGAVFAEIGPRMAELSGSRLAAQQQMEGLLAPHRPKEPAWFLATVGVSPDHQGKGLGSAVVLPGVEAAERAGVPAFLETSAPRNLPFYERLGFTVTADVEVPEGPRTWCMTRKPGA
NFAT-GFP ASSAY: L363 (L363 cells): + (refer to approximately 5%, 10%, 20%, 30%, 40% and 50% GFP positive cells) | NFAT-GFP ASSAY: Raji (RAJI cells): +/- (refer to approximately 5%, 10%, 20%, 30%, 40% and 50% GFP positive cells)

B2: 22025 (protein)
chain: MALPVTALLLPLALLLHAARPQLQLQESGPGLVKPSETLSLTCTVSGDSISSGDYYWGWIRQPPGKGLEWIGHIYYSGVTYYNPSLKSRVTISVDTSRNQFSLKLSSVTAADTAVYYCTREDSSNWRSRGQGTLVTVSSLEDKTHTCPPCPAGRADCGFTSESYQQGVLSATILYEILLGKATLYAVLVSALVLMAMVKRKDSRGRAKRSGSGATNFSLLKQAGDVEENPGPTSMDWIWRILFLVGAATGAHSFEVQLLESGGGLIQPGGSLRLSCAASGFTFSSHAMTWVRQAPGKGLEWVSAISGSGDYTHYADSVKGRFTISRDNSKNTVYLQMNSLRAEDSAVYYCAKDEDGGSLLGHRGQGTLVTVSSTRDKTHTCPPCPAIPEDTFFPSPESSCDVKLVEKSFETDTNLNFQNLSVIGFRILLLKVAGFNLLMTLRLWSSRAKRSGSGVKQTLNFDLLKLAGDVESNPGPSRGHMTEYKPTVRLATRDDVPRAVRTLAAAFADYPATRHTVDPDRHIERVTELQELFLTRVGLDIGKVWVADDGAAVAVWTTPESVEAGAVFAEIGPRMAELSGSRLAAQQQMEGLLAPHRPKEPAWFLATVGVSPDHQGKGLGSAVVLPGVEAAERAGVPAFLETSAPRNLPFYERLGFTVTADVEVPEGPRTWCMTRKPGA
NFAT-GFP ASSAY: L363 (L363 cells): + (refer to approximately 5%, 10%, 20%, 30%, 40% and 50% GFP positive cells) | NFAT-GFP ASSAY: Raji (RAJI cells): +/- (refer to approximately 5%, 10%, 20%, 30%, 40% and 50% GFP positive cells)

B3: 22152 (protein)
chain: MALPVTALLLPLALLLHAARPEVQLLESGGGLVQPGGSLRLSCAASGFTFSSYAMSWVRQAPGKGLEWVSSISGSGDYIYYADSVKGRFTISRDISKNTLYLQMNSLRAEDTAVYYCAKEGTGANSSLADYRGQGTLVTVSSGTGGGGSGGGGSGGGGSEFSYVLTQPPSVSVAPGQTARITCGGNNIGGKSVHWYQQPPGQAPVVVVYDDSDRPSGIPERFSGSNSGNTATLTISRVEAGDEAVYYCQVWDSSSDHVVFGGGTKLTVLLEDLKNVFPPEVAVFEPSEAEISHTQKATLVCLATGFYPDHVELSWWVNGKEVHSGVCTDPQPLKEQPALNDSRYCLSSRLRVSATFWQNPRNHFRCQVQFYGLSENDEWTQDRAKPVTQIVSAEAWGRADCGFTSESYQQGVLSATILYEILLGKATLYAVLVSALVLMAMVKRKDSRGRAKRSGSGATNFSLLKQAGDVEENPGPTSMDWIWRILFLVGAATGAHSFEQLQLQESGPGLVKPSETLSLTCTVSGGSISSSSYFWGWIRQPPGKGLEWIGSIYYSGITYYNPSLKSRVTISVDTSKNQFSLKLSSVTAADTAVYYCARHDGAVAGLFDYWGQGTLVTVSSATRIQNPDPAVYQLRDSKSSDKSVCLFTDFDSQTNVSQSKDSDVYITDKCVLDMRSMDFKSNSAVAWSNKSDFACANAFNNSIIPEDTFFPSPESSCDVKLVEKSFETDTNLNFQNLSVIGFRILLLKVAGFNLLMTLRLWSSRAKRSGSGVKQTLNFDLLKLAGDVESNPGPSRGHMTEYKPTVRLATRDDVPRAVRTLAAAFADYPATRHTVDPDRHIERVTELQELFLTRVGLDIGKVWVADDGAAVAVWTTPESVEAGAVFAEIGPRMAELSGSRLAAQQQMEGLLAPHRPKEPAWFLATVGVSPDHQGKGLGSAVVLPGVEAAERAGVPAFLETSAPRNLPFYERLGFTVTADVEVPEGPRTWCMTRKPGA
NFAT-GFP ASSAY: L363 (L363 cells): 2+ (refer to approximately 5%, 10%, 20%, 30%, 40% and 50% GFP positive cells)

B4: 22153 (protein)
chain: MALPVTALLLPLALLLHAARPACEVQLLESGGGLIQPGGSLRLSCAASGFTFSSHAMTWVRQAPGKGLEWVSAISGSGDYTHYADSVKGRFTISRDNSKNTVYLQMNSLRAEDSAVYYCAKDEDGGSLLGHRGQGTLVTVSSGTGGGGSGGGGSGGGGSEFSYVLTQPPSVSVAPGQTARITCGGNNIGGKSVHWYQQPPGQAPVVVVYDDSDRPSGIPERFSGSNSGNTATLTISRVEAGDEAVYYCQVWDSSSDHVVFGGGTKLTVLLEGQPKANPTVTLFPPSSEELQANKATLVCLISDFYPGAVTVAWKADGSPVKAGVETTKPSKQSNNKYAASSYLSLTPEQWKSHRSYSCQVTHEGSTVEKTVAPTECSPIKTDVITMDPKDNCSKDANDTLLLQLTNTSAYYMYLLLLLKSVVYFAIITCCLLRRTAFCCNGEKSRAKRSGSGATNFSLLKQAGDVEENPGPTSATMDWIWRILFLVGAATGAHSGPQVQLQESGGGLAQAGGSLRLSCAASGRTFSMGWFRQAPGKEREFVAAITYSGGSPYYASSVRGRFTISRDNAKNTVYLQMNSLKPEDTAVYYCAANPTYGSDWNAENWGQGTQVTVSSGSGGGGSGGGGSGGGGSFEQLQLQESGPGLVKPSETLSLTCTVSGGSISSSSYFWGWIRQPPGKGLEWIGSIYYSGITYYNPSLKSRVTISVDTSKNQFSLKLSSVTAADTAVYYCARHDGAVAGLFDYWGQGTLVTVSSATRASTKGPSVFPLAPSSKSTSGGTAALGCLVKDYFPEPVTVSWNSGALTSGVHTFPAVLQSSGLYSLSSVVTVPSSSLGTQTYICNVNHKPSNTKVDKRVEPKSCEVKTDSTDHVKPKETENTKQPSKSCHKPKAIVHTEKVNMMSLTVLGLRMLFAKTVAVNFLLTAKLFFLRAKRSGSGVKQTLNFDLLKLAGDVESNPGPSRGHMTEYKPTVRLATRDDVPRAVRTLAAAFADYPATRHTVDPDRHIERVTELQELFLTRVGLDIGKVWVADDGAAVAVWTTPESVEAGAVFAEIGPRMAELSGSRLAAQQQMEGLLAPHRPKEPAWFLATVGVSPDHQGKGLGSAVVLPGVEAAERAGVPAFLETSAPRNLPFYERLGFTVTADVEVPEGPRTWCMTRKPGA
NFAT-GFP ASSAY: L363 (L363 cells): 2+ (refer to approximately 5%, 10%, 20%, 30%, 40% and 50% GFP positive cells)

B5: 22083 (protein)
chain: MALPVTALLLPLALLLHAARPQLQLQESGPGLVKPSETLSLTCTVSGDSISSGDYYWGWIRQPPGKGLEWIGHIYYSGVTYYNPSLKSRVTISVDTSRNQFSLKLSSVTAADTAVYYCTREDSSNWRSRGQGTLVTVSSLESGGGGSFEEVQLLESGGGLVQPGGSLRLSCAASGFTFSSYAMSWVRQAPGKGLEWVSSISGSGDYIYYADSVKGRFTISRDISKNTLYLQMNSLRAEDTAVYYCAKEGTGANSSLADYRGQGTLVTVSSTRDKTHTCPPCPAIPEDTFFPSPESSCDVKLVEKSFETDTNLNFQNLSVIGFRILLLKVAGFNLLMTLRLWSS
NFAT-GFP ASSAY: L363 (L363 cells): +/- (refer to approximately 5%, 10%, 20%, 30%, 40% and 50% GFP positive cells) | NFAT-GFP ASSAY: Raji (RAJI cells): +/- (refer to approximately 5%, 10%, 20%, 30%, 40% and 50% GFP positive cells)

B6: 22099 (protein)
chain: MALPVTALLLPLALLLHAARPQVQLVESGGGLVQPGGSLRLSCAASGFTFTNHAMSWVRQAPGKGLELVSSISGNGRTTYYADSVKGRFTISRDISKNTLDLQMNSLRAEDTAVYYCAKDGGETLVDSRGQGTLVTVSSLEGQPKANPTVTLFPPSSEELQANKATLVCLISDFYPGAVTVAWKADGSPVKAGVETTKPSKQSNNKYAASSYLSLTPEQWKSHRSYSCQVTHEGSTVEKTVAPTECSGRADCGFTSESYQQGVLSATILYEILLGKATLYAVLVSALVLMAMVKRKDSRGRAKRSGSGATNFSLLKQAGDVEENPGPTSMDWIWRILFLVGAATGAHSFEEVQLLESGGGLVQPGGSLRLSCAASGFTFSSYAMSWVRQAPGKGLEWVSSISGSGDYIYYADSVKGRFTISRDISKNTLYLQMNSLRAEDTAVYYCAKEGTGANSSLADYRGQGTLVTVSSTRASTKGPSVFPLAPSSKSTSGGTAALGCLVKDYFPEPVTVSWNSGALTSGVHTFPAVLQSSGLYSLSSVVTVPSSSLGTQTYICNVNHKPSNTKVDKRVEPKSCIPEDTFFPSPESSCDVKLVEKSFETDTNLNFQNLSVIGFRILLLKVAGFNLLMTLRLWSSRAKRSGSGVKQTLNFDLLKLAGDVESNPGPSRGHMTEYKPTVRLATRDDVPRAVRTLAAAFADYPATRHTVDPDRHIERVTELQELFLTRVGLDIGKVWVADDGAAVAVWTTPESVEAGAVFAEIGPRMAELSGSRLAAQQQMEGLLAPHRPKEPAWFLATVGVSPDHQGKGLGSAVVLPGVEAAERAGVPAFLETSAPRNLPFYERLGFTVTADVEVPEGPRTWCMTRKPGA
NFAT-GFP ASSAY: L363 (L363 cells): L363 (2+) (refer to approximately 5%, 10%, 20%, 30%, 40% and 50% GFP positive cells)

B7: 22090 (protein)
chain: MALPVTALLLPLALLLHAARPQLQLQESGPGLVKPSETLSLTCTVSGDSISSGDYYWGWIRQPPGKGLEWIGHIYYSGVTYYNPSLKSRVTISVDTSRNQFSLKLSSVTAADTAVYYCTREDSSNWRSRGQGTLVTVSSLEDKTHTCPPCPAGRADCGFTSESYQQGVLSATILYEILLGKATLYAVLVSALVLMAMVKRKDSRGRAKRSGSGATNFSLLKQAGDVEENPGPTSMDWIWRILFLVGAATGAHSFEVQLLESGGGLIQPGGSLRLSCAASGFTFSSHAMTWVRQAPGKGLEWVSAISGSGDYTHYADSVKGRFTISRDNSKNTVYLQMNSLRAEDSAVYYCAKDEDGGSLLGHRGQGTLVTVSSTRIQNPDPAVYQLRDSKSSDKSVCLFTDFDSQTNVSQSKDSDVYITDKCVLDMRSMDFKSNSAVAWSNKSDFACANAFNNSIIPEDTFFPSPESSCDVKLVEKSFETDTNLNFQNLSVIGFRILLLKVAGFNLLMTLRLWSSRAKRSGSGVKQTLNFDLLKLAGDVESNPGPSRGHMTEYKPTVRLATRDDVPRAVRTLAAAFADYPATRHTVDPDRHIERVTELQELFLTRVGLDIGKVWVADDGAAVAVWTTPESVEAGAVFAEIGPRMAELSGSRLAAQQQMEGLLAPHRPKEPAWFLATVGVSPDHQGKGLGSAVVLPGVEAAERAGVPAFLETSAPRNLPFYERLGFTVTADVEVPEGPRTWCMTRKPGA
NFAT-GFP ASSAY: L363 (L363 cells): 3+ (refer to approximately 5%, 10%, 20%, 30%, 40% and 50% GFP positive cells)
